In PMC10776498:

B1: GSDMD (gasdermin-D): S338A (protein)
parent chain: MGSAFERVVRRVVQELDHGGEFIPVTSLQSSTGFQPYCLVVRKPSSSWFWKPRYKCVNLSIKDILEPDAAEPDVQRGRSFHFYDAMDGQIQGSVELAAPGQAKIAGGAAVSDSSSTSMNVYSLSVDPNTWQTLLHERHLRQPEHKVLQQLRSRGDNVYVVTEVLQTQKEVEVTRTHKREGSGRFSLPGATCLQGEGQGHLSQKKTVTIPSGSTLAFRVAQLVIDSDLDVLLFPDKKQRTFQPPATGHKRSTSEGAWPQLPSGLSMMRCLHNFLTDGVPAEGAFTEDFQGLRAEVETISKELELLDRELCQLLLEGLEGVLRDQLALRALEEALEQGQSLGPVEPLDGPAGAVLECLVLSSGMLVPELAIPVVYLLGALTMLSETQHKLLAEALESQTLLGPLELVGSLLEQSAPWQERSTMSLPPGLLGNSWGEGAPAWVLLDECGLELGEDTPHVCWEPQAQGRMCALYASLALLSGLSQEPH
B2: GSDMD (gasdermin-D): TMG (protein)
parent chain: B1 parent chain

What was measured:
[1] = western blot of GSDMD-N, HEK293T input; conditions: control: GSDMD-WT
[2] = western blot of GSDMD-N, HUVECs; conditions: glycan gained; control: HUVECs, LPS without TMG

| Protein | other: proteolytic processing ([1]; glycan lost, LPS + TMG) | other: proteolytic processing ([1]; glycan gained, LPS without TMG) | other: proteolytic processing [2] |
| --- | --- | --- | --- |
| B1 | increases |  |  |
| B2 |  | decreases | decreases |
